Laboratory results published in paper PMC10200060, “Inhibition of DAMP actions in the tumoral microenvironment using lactoferrin-glycyrrhizin conjugate for glioblastoma therapy” (Biomaterials Research, 2023).

Tests used:
[1] = molecular target: human recombinant HMGB1 protein (high-mobility group box-1) (human) (UniProt P09429); assay: SPR; human recombinant HMGB1 immobilised on a CMDH chip (immobilisation buffer 10 mM S.A., pH 4.5); analytes flowed at 30 uL/min; running buffer PBS pH 7.4; association and dissociation 3 min each; room temperature; Reichert SR7500DC, Scrubber2
human recombinant HMGB1 protein (high-mobility group box-1) (human), sequence (P09429 whole entry): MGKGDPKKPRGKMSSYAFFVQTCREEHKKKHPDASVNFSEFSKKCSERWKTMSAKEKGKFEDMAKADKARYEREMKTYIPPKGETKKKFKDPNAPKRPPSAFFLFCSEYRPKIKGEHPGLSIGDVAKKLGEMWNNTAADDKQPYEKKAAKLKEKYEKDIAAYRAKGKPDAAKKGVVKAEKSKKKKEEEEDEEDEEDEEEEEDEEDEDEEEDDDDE

[2] = molecular target: human recombinant HMGB1 protein (high-mobility group box-1) (human) (UniProt P09429)

Substance | Kd [1] [µM] | reduction of HUVEC proliferation in Transwell co-culture with U87MG (CCK-8, 24 h, 100 uM GL equivalent) [2] [%]
lactoferrin human (Lf) (natural protein) | 0.165 | 8.2
lactoferrin-glycyrrhizin conjugate Lf-GL (1:4) | 0.595 | –
lactoferrin-glycyrrhizin conjugate Lf-GL (1:10) | 0.0231 | 13
lactoferrin-glycyrrhizin conjugate Lf-GL (1:15) | 0.0323 | –
